This is an account of results in patent US20100331262A1 (KAGOSHIMA UNIVERSITY, published 2010).

B1: pepB6-L1 (peptide)
peptide: GMLDIFAPIRHV
B2: pepB6-L10 (peptide)
peptide: TSPILDVLTPPR
B3: pepB7-C15 (peptide)
peptide: CYGTKPWMC
notes: also called pepB6-C2, C5, C6, C7, C8, C9, C10, and C15; pepD1-C5, C7, and C20
B4: pepD1-L13 (peptide)
peptide: GNTLLDTLVPLI
B5: pepD1-C8 (peptide)
peptide: CFGRLPWMC
B6: pepD1-C10 (peptide)
peptide: CFGSLPWMC
B7: pepD1-C2 (peptide)
peptide: CYGTEPWMC
notes: also called pepD1-C13; pepD1-C2, C13
B8: pepD1-L20 (peptide)
peptide: NPLDFYAPSILP
B9: pepD1-C18 (peptide)
peptide: CFGHEPWMC
B10: pepD1-C11 (peptide)
peptide: CFGHKPWMC
B11: pepD1-L7 (peptide)
peptide: SILDILSPRLAE
B12: pepD1-C3 (peptide)
peptide: CQGHLPWMC
B13: pepD1-L6 (peptide)
peptide: SSIIDILLPPIY
B14: pepD1-L5 (peptide)
peptide: GSPFLDLLAPAA
notes: also called pepD1-L9; pepD1-L5, L9
B15: unrelated control peptide (GSGGGSCGYWRSEWGLCG) (peptide)
peptide: GSGGGSCGYWRSEWGLCG
notes: also called unrelated peptide

T2 sequence (VH, as listed by the source, chain 1 of 2): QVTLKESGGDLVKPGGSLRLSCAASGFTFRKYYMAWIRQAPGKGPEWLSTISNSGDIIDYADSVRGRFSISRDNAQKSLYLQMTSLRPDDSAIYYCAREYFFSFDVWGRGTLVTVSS
T2 sequence (VL, as listed by the source, chain 2 of 2): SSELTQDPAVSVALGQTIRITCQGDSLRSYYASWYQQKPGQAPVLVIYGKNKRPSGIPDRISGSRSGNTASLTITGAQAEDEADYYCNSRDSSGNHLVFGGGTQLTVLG

For the first assay, the target named is T1, B6 scFv.
T1 construct: also called clone B6 of WO 2005/105998
T1 sequence (VH, as listed by the source, chain 1 of 2): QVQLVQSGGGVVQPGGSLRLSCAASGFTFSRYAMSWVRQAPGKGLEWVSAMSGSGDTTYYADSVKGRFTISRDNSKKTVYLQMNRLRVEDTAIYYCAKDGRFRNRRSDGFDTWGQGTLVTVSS
T1 sequence (VL, as listed by the source, chain 2 of 2): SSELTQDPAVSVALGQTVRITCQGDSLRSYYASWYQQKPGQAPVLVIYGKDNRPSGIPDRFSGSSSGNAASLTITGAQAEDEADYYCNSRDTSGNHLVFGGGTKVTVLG
Description: phage panning and phage ELISA on coated scFv.
Turning to B1, the binding result is on record as “binds”. Consider B2, for which the binding result is “binds”.

In another assay the target is T1, B6 scFv. In words: phage panning on coated scFv, clones confirmed by phage ELISA.
With B3, the binding result is “binds”.

A further assay concerns the target T2, D1 scFv.
T2 construct: also called clone D1 of WO 2005/105998
Described as above.
Consider B4, for which the binding result is reported as “binds”. As for B5, the binding result is recorded as “binds”. In the case of B6, the binding result was “binds”. As to B3, the binding result is “binds”.

In the case of B7, the binding result is recorded as “binds”. Turning to B8, the binding result is “binds”.

On to B9, for which the binding result is recorded as “binds”. Consider B10, for which the binding result is recorded as “binds”.

As for B11, the binding result is recorded as “binds”.

In the case of B12, the binding result is on record as “binds”. For the molecule B13, the binding result is reported as “binds”. On the same count and under the same terms, the result for B14 reads “binds”.

In another assay the target is T3, B7 scFv.
T3 construct: also called clone B7 of WO 2005/105998
T3 sequence (VH, as listed by the source, chain 1 of 2): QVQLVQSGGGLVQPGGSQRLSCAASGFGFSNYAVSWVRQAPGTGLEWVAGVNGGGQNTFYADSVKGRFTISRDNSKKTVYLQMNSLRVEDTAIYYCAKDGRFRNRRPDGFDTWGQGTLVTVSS
T3 sequence (VL, as listed by the source, chain 2 of 2): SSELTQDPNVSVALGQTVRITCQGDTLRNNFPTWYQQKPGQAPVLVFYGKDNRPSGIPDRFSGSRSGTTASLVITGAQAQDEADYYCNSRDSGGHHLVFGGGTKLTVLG
The assay is described as above.
With B3, the binding result is reported as “binds”.

A further assay deals with T4, Aβ oligomers or Aβ fibers formed 1.5 hours after the dissolution of Aβ1-42 (UniProt P05067 672-713).
T4 construct: domain: Aβ1-42; Aggregated conformers of Aβ1-42 after 1.5 h at 40 µM in 20 mM phosphate buffer pH 7.0; The number of copies is not defined; also called Aβ conformers (Aβ oligomers and Aβ fibers)
T4 sequence (P05067 672-713 limits assumed): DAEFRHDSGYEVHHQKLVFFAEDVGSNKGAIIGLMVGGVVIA
In words: precipitation with streptavidin-magnet beads, Western blot with anti-Aβ antibodies.
On to B15, for which the binding result is on record as “no binding”.
